Measurements taken from publication PMC9261887.

Target: Human angiotensin-converting enzyme 2 ectodomain (amino acids 20-613) with C-terminal E5 coil tag, p (human) (UniProt Q9BYF1)
Assay: SPR

Chain of Human angiotensin-converting enzyme 2 ectodomain (amino acids 20-613) with C-terminal E5 coil tag, p (human) (Q9BYF1 20-613): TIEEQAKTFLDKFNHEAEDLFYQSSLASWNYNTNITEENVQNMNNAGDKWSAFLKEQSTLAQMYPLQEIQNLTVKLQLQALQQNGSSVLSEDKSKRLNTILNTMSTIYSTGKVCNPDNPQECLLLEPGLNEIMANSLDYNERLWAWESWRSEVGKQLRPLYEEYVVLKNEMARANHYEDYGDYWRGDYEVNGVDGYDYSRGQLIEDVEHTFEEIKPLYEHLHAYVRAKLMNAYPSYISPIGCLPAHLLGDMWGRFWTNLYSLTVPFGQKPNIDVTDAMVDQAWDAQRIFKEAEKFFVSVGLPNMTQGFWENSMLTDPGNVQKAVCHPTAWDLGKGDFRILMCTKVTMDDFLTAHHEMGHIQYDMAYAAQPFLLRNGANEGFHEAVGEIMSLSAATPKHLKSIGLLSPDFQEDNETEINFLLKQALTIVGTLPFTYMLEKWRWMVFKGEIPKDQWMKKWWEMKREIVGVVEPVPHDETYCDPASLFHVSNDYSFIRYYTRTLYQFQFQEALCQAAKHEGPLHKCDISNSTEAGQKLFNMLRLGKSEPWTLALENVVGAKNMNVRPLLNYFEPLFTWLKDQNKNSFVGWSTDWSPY

Row | Substance | dH
1 | SARS-CoV-2 spike protein receptor binding domain (RBD 319-541), Alpha B.1.1.7 (from UniProt P0DTC2 319-541) (domain or fragment) | -73 kJ/mol
2 | SARS-CoV-2 spike protein receptor binding domain (RBD 319-541), Beta B.1.351 (from UniProt P0DTC2 319-541) (domain or fragment) | -64 kJ/mol
3 | SARS-CoV-2 spike protein receptor binding domain (RBD 319-541), Delta B.1.617.2 (from UniProt P0DTC2 319-541) (domain or fragment) | -45.6 kJ/mol
4 | SARS-CoV-2 spike protein receptor binding domain (RBD 319-541), Kappa B.1.617.1 (from UniProt P0DTC2 319-541) (domain or fragment) | -40 kJ/mol
5 | SARS-CoV-2 spike protein receptor binding domain (RBD 319-541), Omicron B.1.1.529 (from UniProt P0DTC2 319-541) (domain or fragment) | -71 kJ/mol
